Source: patent US8071548B2, “Method of reducing injury to mammalian cells” (Nono, Inc., priority 2002, dated 2011)
No end group written: not given here.

How the values were obtained:
[1] = molecular target: NMDAR/PSD-95 interaction (Rattus norvegicus, UniProt P31016); type: binding; conditions: as compared with controls
[2] = tested on: cultured cortical neurons; assay: Intracellular peptide delivery into cortical neuronal cultures (dansyl fluorescence, confocal microscopy); type: cell-based, mouse; conditions: bath applied to cultured cortical neurons; dansyl peptides 10 μM
Experimental: I bath applied these to cultured cortical neurons and observed their fluorescence by confocal microscopy. […] Tat-NR2B9c-dansyl was detectable in the neurons within 10 min of the start of the application and the peptide accumulated to a maximum level over the next 20 min (FIG. 5C). This level was maintained until the dansyl-Tat-NR2B9c was washed from the bath and the peptide remained detectable within the neurons for more than 5 hours thereafter.

Chain of NMDAR/PSD-95 interaction (P31016 whole entry): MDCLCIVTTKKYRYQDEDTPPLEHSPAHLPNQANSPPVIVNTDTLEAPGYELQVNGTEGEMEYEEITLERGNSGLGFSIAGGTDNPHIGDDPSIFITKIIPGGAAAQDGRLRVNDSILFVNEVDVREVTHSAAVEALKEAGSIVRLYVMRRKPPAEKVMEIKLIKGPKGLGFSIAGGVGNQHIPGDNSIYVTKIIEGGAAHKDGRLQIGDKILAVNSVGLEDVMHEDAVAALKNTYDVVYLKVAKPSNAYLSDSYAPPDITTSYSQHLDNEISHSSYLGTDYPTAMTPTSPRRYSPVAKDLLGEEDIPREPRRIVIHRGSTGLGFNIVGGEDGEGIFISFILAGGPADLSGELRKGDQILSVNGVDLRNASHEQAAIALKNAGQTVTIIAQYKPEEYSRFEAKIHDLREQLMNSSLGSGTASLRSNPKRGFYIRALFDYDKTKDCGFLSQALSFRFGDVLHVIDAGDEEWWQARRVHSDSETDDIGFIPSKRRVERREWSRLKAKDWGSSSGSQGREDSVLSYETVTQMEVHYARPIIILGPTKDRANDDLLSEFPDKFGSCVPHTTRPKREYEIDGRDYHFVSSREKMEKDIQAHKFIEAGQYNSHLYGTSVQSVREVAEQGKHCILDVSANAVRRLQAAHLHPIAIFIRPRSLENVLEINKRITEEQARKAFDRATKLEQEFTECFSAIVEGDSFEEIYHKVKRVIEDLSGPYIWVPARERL

KALGISYGRKK [Tat38-48]
reduction of co-immunoprecipitation of PSD-95 with NR2B (optical density signal) [1]: none of the three control peptides reduced

KLSSIESDV [NR2B9c]
entry into cells / intracellular fluorescence [2]: did not enter cells
